{"source": "patent US8003609B2", "about": "“Method for ameliorating pain by modification of NMDA receptors through inhibition of Src” (The Hospital for Sick Children, priority 2004, dated 2011)", "key": {"ND2.2-GST": {"target": "T1, ND2.2-GST (Homo sapiens, UniProt P03891)", "T1 construct": "amino acids 189-238 (ND2.2-GST); made in house; host or cells: bacteria", "T1 sequence (P03891 189-238)": "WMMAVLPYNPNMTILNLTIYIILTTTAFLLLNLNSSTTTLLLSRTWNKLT", "test": "dot blot of biotinylated Src peptides on ND2.2-GST", "type": "binding", "settings": "biotinylated peptide", "protocol": "(§1) Src, Fyn, and ND2 recombinant proteins were prepared. The cDNAs encoding the SH3 and SH2 domains of mouse n-Src and Fyn were PCR subcloned, ligated in frame into pGEX4T-1 (Amersham Pharmacia Biotech, Baie d'Urfé, Québec), and sequenced. These plasmids, as well as plasmids encoding the unique domains of Src and Fyn in pGEX2T'6, were transformed into BL21 bacteria, and GST fusion proteins were purified by glutathione affinity chromatography. To create the ND2.1, ND2.2, and ND2.3 GST fusion proteins, cDNAs encoding amino acids 239-321 (ND2.1-GST; SEQ ID NO:7), amino acids 189-238 (ND2.2-GST; SEQ ID NO:11), and amino acids 1-188 (ND2.3-GST; SEQ ID NO:13) of human ND2 were PCR subcloned and ligated into pGEX4T-1 (the nucleotide sequence encoding ND2 is SEQ ID NO:8 and the amino acid sequence is SEQ ID NO:9; the nucleotide sequences encoding ND2.1; ND2.2 and ND2.3 are SEQ ID NOS:6, 10 and 12, respectively). Using PCR-based single nucleotide mutagenesis, all cDNAs encoding ND2 fusion proteins were corrected for differences between mitochondrial and nuclear codons to prevent premature translation termination and protein truncation. […]\n(§2) Src40-58 and scrambled Src peptides were biotinylated by incubating with Sulfo-NHS-Biotin (Pierce Chemical Co., Rockford, Ill.) for 30 minutes at room temperature (SEQ ID NO:4, Src protein). […] Bound probe was then detected on film using an ECL kit."}, "ND2.3-GST": {"target": "T2, ND2.3-GST (Homo sapiens, UniProt P03891)", "T2 construct": "amino acids 1-188 (ND2.3-GST); made in house; host or cells: bacteria", "T2 sequence (P03891 1-188)": "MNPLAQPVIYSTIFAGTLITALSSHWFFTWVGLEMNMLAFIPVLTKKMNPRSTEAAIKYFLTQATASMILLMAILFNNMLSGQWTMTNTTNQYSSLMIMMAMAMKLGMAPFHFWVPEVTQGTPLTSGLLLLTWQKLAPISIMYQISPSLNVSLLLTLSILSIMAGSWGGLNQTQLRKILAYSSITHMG", "test": "dot blot of biotinylated Src peptides on ND2.3-GST", "type": "binding", "settings": "biotinylated peptide", "protocol": "as §1, §2"}, "ND2.1-GST": {"target": "T3, ND2.1-GST (Homo sapiens, UniProt P03891, A265T)", "T3 construct": "made in house; host or cells: bacteria", "T3 sequence (P03891 239-318 A265T)": "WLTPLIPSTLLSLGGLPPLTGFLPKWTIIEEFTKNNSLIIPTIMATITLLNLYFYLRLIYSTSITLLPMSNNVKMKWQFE", "test": "in vitro binding of biotinylated Src peptides to ND2.1-GST (blot / dot blot)", "settings": "biotinylated peptide, streptavidin-HRP detection", "protocol": "Src, Fyn, and ND2 recombinant proteins were prepared. The cDNAs encoding the SH3 and SH2 domains of mouse n-Src and Fyn were PCR subcloned, ligated in frame into pGEX4T-1 (Amersham Pharmacia Biotech, Baie d'Urfé, Québec), and sequenced. These plasmids, as well as plasmids encoding the unique domains of Src and Fyn in pGEX2T'6, were transformed into BL21 bacteria, and GST fusion proteins were purified by glutathione affinity chromatography. To create the ND2.1, ND2.2, and ND2.3 GST fusion proteins, cDNAs encoding amino acids 239-321 (ND2.1-GST; SEQ ID NO:7), amino acids 189-238 (ND2.2-GST; SEQ ID NO:11), and amino acids 1-188 (ND2.3-GST; SEQ ID NO:13) of human ND2 were PCR subcloned and ligated into pGEX4T-1 (the nucleotide sequence encoding ND2 is SEQ ID NO:8 and the amino acid sequence is SEQ ID NO:9; the nucleotide sequences encoding ND2.1; ND2.2 and ND2.3 are SEQ ID NOS:6, 10 and 12, respectively). Using PCR-based single nucleotide mutagenesis, all cDNAs encoding ND2 fusion proteins were corrected for differences between mitochondrial and nuclear codons to prevent premature translation termination and protein truncation. All constructs were then confirmed by sequencing. The plasmids were transformed into bacteria, and GST fusion proteins were purified by glutathione affinity chromatography.\nas §2\nTo detect the binding of ND2.1-GST with Src peptides, the ND2.1-GST fusion protein was purified on glutathione SEPHAROSE. […] Bound probe was then detected on film using an ECL kit (Amersham Pharmacia Biotech, Baie d'Urfé, Québec).\nSrc40-58, Src40-49, Src49-58, scrambled Src40-58, TAT-Src40-49, and scrambled TAT-Src40-49 peptides were biotinylated by incubating with Sulfo-NHS-Biotin (Pierce Chemical Co., Rockford, Ill.) for 30 minutes at room temperature. […] Bound probe was then detected on film using an ECL kit."}}, "data": [{"substance": "Src40-58: peptide comprising amino acid residues 40-58 of SEQ ID NO:4 (Src) (PASADGHRGPSAAFAPAAA; listed as Homo sapiens)", "values": [{"measurement": "binding to ND2.2-GST", "setting": "ND2.2-GST", "value": "Neither Src40-58 nor scrambled Src40-58 bound"}, {"measurement": "binding to ND2.3-GST", "setting": "ND2.3-GST", "value": "Neither Src40-58 nor scrambled Src40-58 bound"}, {"measurement": "binding to ND2.1-GST", "setting": "ND2.1-GST", "value": "bind directly"}]}]}
